# According to patent publication US20230212294A1:
# Residue numbers refer to the chain shown, from its start.
# B1: IL-P7-C05 (antibody, V domains shown)
# VH: EVQLVESGGDLVQPGGSLKLSCAASGFTFSSYGMSWVRQTPDKRLELVATINSNGGTTYYPDSVKGRFTISRDNAKHTLYLQMSSLKSEDTAMYYCTRNEEFRRGLAYWGQGTLVTVSA
# VL: DIQMIQSPASLSVSVGETVTITCRASENIYSNLAWYQQKQGKSPQLLVYAATNLADGVPSRFSGSGSGTQYSLKINSLQSEDFGSYYCQHFWGTPPWTFGGGTKLEIK
# B2: IL-P6-C08 (antibody, V domains shown)
# VH: EVKLVESGGDLVKPGGSLKLSCAASGFTFSSYGMSWVRQTSDKRLEWVATISGGGRYTYYPDSVKGRFTISRDSSKNTLYLQMSSLKSEDTAMYYCVRHYDGYLDYWGLGTTLTVSS
# VL: DIQMIQSPASLSASVGETVTITCRASENIYSYLAWYQQKQGKSPQLLVYNAKTLAEGVPSRFSGSGSGTQFSLKINSLQPEDFGSYYCQHHYGTPPYTFGGGTKLEIK
# B3: IL-P5-B01 (antibody, V domains shown)
# VH: EVQLQESGPSLVKPSQTLSLTCSVTGDSITSGSWNWIRKFPGNKLEYMGYISYSGSIYYNPSLKSRISITRDTSKNQYYLQLNSVTTEDTATYYCARGNPAWFAYWGQGTLVTVSA
# VL: DIVMTQSQKFMSTSVGDRVSVTCKASQNVGTNVAWYQQKPGQSPKALIYSASYRYSGVPDRFTGSGSGTDFTLTISNVQSEDLAEYFCQQYNSYPYTFGGGTKLEIK
# B4: IL-P7-A06 (antibody, V domains shown)
# VH: QVQLQQSGPEVVRPGVSVKISCKGSGYTFTDYAMHWVKQSHAKSLEWIGIINTYNGNTNYNQKFKGKATMTVDKSSSTAYMEFARLTSEDSAIYYCARSRGPWDRYFDVWGAGTTVTVSS
# VL: B3 VL with N32A, A46L, Y53N, S56T, V78M, E85D, N92S, Y96F, G100S
# B5: IL-P6-D06 (antibody, V domains shown)
# VH: QVQLQQSGPELVRPGVSVKISCKGSGYTFTDYAIHWVKQSHAKSLEWIGVINTYSGNTNYNQKFKGRATMTVDKSSSTAYMELARLTSEDSAIYFCARGVTYGSGYPYWYFDVWGAGTTVTVSS
# VL: B3 VL
# B6: IL-P6-C11 (antibody, V domains shown)
# VH: EVQLQQSGPELVKPGASVRISCKTSGYTFTDYVIHWVKQNHGGSLEWIGGINRDSGGTTYNQKFQDKVTLTVDKSSNTAYMELRSLTSEDSAVYYCTKWKFPWYFDVWGAGTTVTVSS
# VL: DIELTQSPAIMSASPGEKVTMTCSASSSISYMHWYQQKPGTSPKRWIYDTSKLASGVPARFSGSGSGTSYSLTISRVEAEDAATYYCQQWSSNPLTFGSGTKLEIK
# B7: IL-P6-B07 (antibody, V domains shown)
# VH: B6 VH with D31E
# VL: B6 VL with E3V, I29V, P39S, R76S, V77M, S99A, I105L
# B8: IL-P5-C06 (antibody, V domains shown)
# VH: QVQLQQSGPELVRPGVSVKISCKGSGYTFTDYAIHWAKQGHAKSLEWIGIINTYNGNSNYNQNFKGKATMTVDKSSSTAYMELTRLTSEDSAIYYCARNYGSSFNWYFDVWGQGTTLTVSS
# VL: DIVLTQSPTTMAASPGEKITITCSASSSISSNYLHWYQQKPGFSPKLLIYSTSNLASGVPARFSGSGSGTSYSLTISSVEAEDAATYYCQQYSGYPLTFGAGTKLELK
# B9: IL-P7-C05-H1L1 (antibody, V domains shown)
# VH: B1 VH with D10G, K19R, T40A, D42G, R44G, K87R, S88A, M93V, A119S
# VL: DIQMTQSPSSLSASVGDRVTITCRASENIYSNLAWYQQKPGKAPKLLVYAATNLADGVPSRFSGSGSGTDYTLTISSLQPEDFATYYCQHFWGTPPWTFGQGTKLEIK
# B10: IL-P5-C06-H2L2 (antibody, V domains shown)
# VH: QVQLVQSGAEVKKPGASVKVSCKGSGYTFTDYAIHWGRQAPGQGLEWIGIINTYNGNSNYAQKFQGRATMTRDTSTSTAYMELSRLRSEDTAVYYCARNYGSSFNWYFDVWGQGTTVTVSS
# VL: DIQLTQSPSSLSASVGDRITITCRASSSISSNYLHWYQQKPGKAPKLLIYSTSNLASGVPSRFSGSGSGTDFTLTISSVQPEDFATYYCQQYSGYPLTFGQGTKLELK
# B11: IL-P5-C06-H3L3 (antibody, V domains shown)
# VH: B10 VH with G24A, I48M, A68V
# VL: B10 VL with I19V, V79L
# B12: IL-P5-C06-H2L4 (antibody, V domains shown)
# VH: B10 VH
# VL: B10 VL with L4M, I19V, A56Q, V79L
# B13: IL-P5-C06-H1L3 (antibody, V domains shown)
# VH: B10 VH with G37A, R72V, T74K
# VL: B10 VL with I19V, V79L
# B14: IL-P5-C06-H1L1 (antibody, V domains shown)
# VH: B10 VH with G37A, R72V, T74K
# VL: B10 VL with L11M, A44S, F72Y
# B15: IL-P5-C06-H1L4 (antibody, V domains shown)
# VH: B10 VH with G37A, R72V, T74K
# VL: B10 VL with L4M, I19V, A56Q, V79L
# B16: IL-P5-C06-H2L3 (antibody, V domains shown)
# VH: B10 VH
# VL: B10 VL with I19V, V79L
# B17: IL-P5-C06-H3L4 (antibody, V domains shown)
# VH: B10 VH with G24A, I48M, A68V
# VL: B10 VL with L4M, I19V, A56Q, V79L
# B18: IL-P7-C05-H4L3 (antibody, V domains shown)
# VH: EVQLVESGGGLVQPGGSLRLSCAASGFTFSSYAMSWVRQAPGKGLELVAAINSNGGSTYYADSVKGRFTISRDNAKNTLYLQMSSLRAEDTAVYYCTRNEEFRRGLAYWGQGTLVTVSS
# VL: B9 VL with V48I, T52S, A55Q, D56S
# B19: IL-P7-C05-H3L1 (antibody, V domains shown)
# VH: B18 VH with A33G
# VL: B9 VL
# B20: IL-P7-C05-H3L3 (antibody, V domains shown)
# VH: B18 VH with A33G
# VL: B9 VL with V48I, T52S, A55Q, D56S
# B21: IL-P7-C05-H2L2 (antibody, V domains shown)
# VH: B18 VH with A33G, A50T, S57T
# VL: B9 VL with A55Q, D56S
# B22: IL-P7-C05-H4L1 (antibody, V domains shown)
# VH: B18 VH
# VL: B9 VL
# B23: IL-P7-C05-H2L1 (antibody, V domains shown)
# VH: B18 VH with A33G, A50T, S57T
# VL: B9 VL
# Target: Human B7-H3-his (human) (UniProt Q5ZPR3)
# Test: ELISA, antigen coated at 2 µg/mL
row,Binder,EC50 [µg/mL]
1,B1,0.0788
2,B2,0.0424
3,B3,0.137
4,B4,0.195
5,B5,0.174
6,B6,0.23
7,B7,0.132
8,B8,0.177

# Target: Human B7-H3-his (human) (UniProt Q5ZPR3)
# Test: ELISA, human B7-H3 at protein level (second run)
row,Binder,EC50 [µg/mL]
1,B1,0.044
2,B9,0.053
3,B2,0.088
4,B3,0.248
5,B4,0.172
6,B5,0.233
7,B6,0.182
8,B7,0.194
9,B8,0.302
10,B10,0.147
11,B11,0.151
12,B12,0.223
13,B13,0.164
14,B14,0.206
15,B15,0.237
16,B16,0.151
17,B17,0.156
18,B18,0.0395
19,B19,0.026
20,B20,0.071
21,B21,0.051
22,B22,0.035
23,B23,0.111
